B1: Vam3 cytoplasmic domain (residues 1–264) fused C-terminally to GST (domain or fragment)
chain: MSFFDIEAQSSKGNSQQEPQFSTNQKTKELSNLIETFAEQSRVLEKECTKIGSKRDSKELRYKIETELIPNCTSVRDKIESNILIHQNGKLSADFKNLKTKYQSLQQSYNQRKSLFPLKTPISPGTSKERKDIHPRTEAVRQDPESSYISIKVNEQSPLLHNEGQHQLQLQEEQEQQQQGLSQEELDFQTIIHQERSQQIGRIHTAVQEVNAIFHQLGSLVKEQGEQVTTIDENISHLHDNMQNANKQLTRADQHQRDRNKCGK
B3: GST-Sed5 SNARE domain (residues 170–319) (domain or fragment)
chain: ANKDRWQKLTTDTGHAPADDQTQSNHAADLTTYNNSNPFMTSLLDESSEKNNNSSNQGELSFPQNDSQLMLMEEGQLSNNVYLQERNRAVETIESTIQEVGNLFQQLASMVQEQGEVIQRIDANVDDIDLNISGAQRELLKYFDRIKSNR
B6: His6-Nyv1 cytoplasmic domain (domain or fragment)
chain: MKRFNVSYVEVIKNGETISSCFQPFQKNENYGTITSANEQITPVIFHNLIMDMVLPKVVPIKGNKVTKMSMNLIDGFDCFYSTDDHDPKTVYVCFTLVDMPKILPIRILSGLQEYESNATNELLSSHVGQILDSFHEELVEYRNQTLNSSGNGQSSNGNGQNTISDIGDATEDQIKDVIQIMNDNIDKFLERQERVSLLVDKTSQLNSSSNKFRRKAVNIKEIMWWQKVKN
B7: His7-MBP-Vti1 cytoplasmic domain (domain or fragment)
chain: SSLLISYESDFKTTLEQAKASLAEAPSQPLSQRNTTLKHVEQQQDELFDLLDQMDVEVNNSIGDASERATYKAKLREWKKTIQSDIKRPLQSLVDSGDRDRLFGDLNASNIDDDQRQQLLSNHAILQKSGDRLKDASRIANETEGIGSQIMMDLRSQRETLENARQTLFQADSYVDKSIKTLKTMTRRLVANK

What was measured:
Test in all cases: pull-down
His6-Vam7 = molecular target: T1, His6-Vam7 (S. cerevisiae, UniProt P32912 1-316)
T1 sequence: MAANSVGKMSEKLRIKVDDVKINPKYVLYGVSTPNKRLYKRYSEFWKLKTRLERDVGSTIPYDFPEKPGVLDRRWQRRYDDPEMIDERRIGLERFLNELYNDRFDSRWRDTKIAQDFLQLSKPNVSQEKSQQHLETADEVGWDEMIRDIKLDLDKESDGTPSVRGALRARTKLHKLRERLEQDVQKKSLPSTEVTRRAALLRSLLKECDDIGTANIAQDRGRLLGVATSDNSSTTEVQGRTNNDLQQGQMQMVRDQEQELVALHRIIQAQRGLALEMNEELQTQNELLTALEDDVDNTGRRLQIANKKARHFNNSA

[1] = molecular target: B3
[2] = molecular target: T2, His6-Sec22 cytoplasmic domain (UniProt P22214 1-192)
T2 sequence: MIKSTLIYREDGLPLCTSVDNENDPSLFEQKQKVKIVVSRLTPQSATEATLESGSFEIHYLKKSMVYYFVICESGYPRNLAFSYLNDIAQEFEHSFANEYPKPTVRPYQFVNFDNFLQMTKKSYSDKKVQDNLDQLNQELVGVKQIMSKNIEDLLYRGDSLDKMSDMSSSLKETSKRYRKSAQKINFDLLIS

purified Vps33 = molecular target: T3, purified Vps33 (S. cerevisiae, UniProt P20795 1-691)
T3 sequence: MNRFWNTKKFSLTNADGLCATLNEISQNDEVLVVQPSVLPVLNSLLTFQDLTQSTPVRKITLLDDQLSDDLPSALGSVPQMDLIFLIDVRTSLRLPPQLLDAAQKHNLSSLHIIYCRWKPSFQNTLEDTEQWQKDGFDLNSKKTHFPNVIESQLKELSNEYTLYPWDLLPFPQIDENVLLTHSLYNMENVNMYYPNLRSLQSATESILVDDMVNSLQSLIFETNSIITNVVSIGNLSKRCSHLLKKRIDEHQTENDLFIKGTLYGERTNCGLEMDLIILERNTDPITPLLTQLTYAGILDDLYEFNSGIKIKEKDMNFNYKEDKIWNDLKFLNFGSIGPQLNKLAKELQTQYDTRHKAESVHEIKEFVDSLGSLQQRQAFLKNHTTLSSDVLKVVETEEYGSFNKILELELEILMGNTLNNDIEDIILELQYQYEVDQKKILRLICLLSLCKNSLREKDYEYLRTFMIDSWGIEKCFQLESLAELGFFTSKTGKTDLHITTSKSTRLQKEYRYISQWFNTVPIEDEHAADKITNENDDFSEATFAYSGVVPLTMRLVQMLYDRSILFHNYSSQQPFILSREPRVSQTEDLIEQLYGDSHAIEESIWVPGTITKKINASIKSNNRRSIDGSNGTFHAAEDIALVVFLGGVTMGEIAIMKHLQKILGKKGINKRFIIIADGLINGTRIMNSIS

[3] = molecular target: B6
[4] = molecular target: B7
[5] = molecular target: B1

## B1
His6-Vam7
  binding result: binds

B2: His6-Bet1 cytoplasmic domain (domain or fragment)
chain: MSSRFAGGNAYQRDTGRTQLFGPADGSNSLDDNVSSALGSTDKLDYSQSTLASLESQSEEQMGAMGQRIKALKSLSLKMGDEIRGSNQTIDQLGDTFHNTSVKLKRTFGNMMEMARR
[1]
  binding result: binds

## B3
[2]
  binding result: binds

B4: minimal SNARE complex lacking the N-terminal domains of Vam3 and Vam7 (complex)
chain 1: SQEELDFQTIIHQERSQQIGRIHTAVQEVNAIFHQLGSLVKEQGEQVTTIDENISHLHDNMQNANKQLTRADQHQRDRNKCGK
chain 2: PSTEVTRRAALLRSLLKECDDIGTANIAQDRGRLLGVATSDNSSTTEVQGRTNNDLQQGQMQMVRDQEQELVALHRIIQAQRGLALEMNEELQTQNELLTALEDDVDNTGRRLQIANKKARHFNNSA
chain 3: SSLLISYESDFKTTLEQAKASLAEAPSQPLSQRNTTLKHVEQQQDELFDLLDQMDVEVNNSIGDASERATYKAKLREWKKTIQSDIKRPLQSLVDSGDRDRLFGDLNASNIDDDQRQQLLSNHAILQKSGDRLKDASRIANETEGIGSQIMMDLRSQRETLENARQTLFQADSYVDKSIKTLKTMTRRLVANK
chain 4: MKRFNVSYVEVIKNGETISSCFQPFQKNENYGTITSANEQITPVIFHNLIMDMVLPKVVPIKGNKVTKMSMNLIDGFDCFYSTDDHDPKTVYVCFTLVDMPKILPIRILSGLQEYESNATNELLSSHVGQILDSFHEELVEYRNQTLNSSGNGQSSNGNGQNTISDIGDATEDQIKDVIQIMNDNIDKFLERQERVSLLVDKTSQLNSSSNKFRRKAVNIKEIMWWQKVKN
Purified Vps33
  Kd: 2800 nM

B5: Vam3 SNARE domain (residues 182–264) fused C-terminally to GST (domain or fragment)
chain: SQEELDFQTIIHQERSQQIGRIHTAVQEVNAIFHQLGSLVKEQGEQVTTIDENISHLHDNMQNANKQLTRADQHQRDRNKCGK
[3]
  binding result: binds
[4]
  binding result: binds

## B6
[5]
  binding result: binds

## B7
[5]
  binding result: binds

— article PMC3510022 (Molecular Biology of the Cell, 2012)
